According to US20150125397A1, “DUAL SPECIFIC BINDING PROTEINS DIRECTED AGAINST IMMUNE CELL RECEPTORS AND AUTOANTIGENS” (ABBVIE INC., priority 2013, published 2015):

B1: DVD3759: DVD-Ig: VD1 mIgM (B7.6), SL linker, VD2 DNA(PA4); heavy SEQ ID NO 64, light 65 (antibody)
heavy: QVQLKESGPGLVKPSLTLSLTCTVSGFSLNGYGVIWVRQPPGKGLEWMGVIWGNGNTNYNSTLKSRLSISRDTSKSQVFLKMNNLQTEDTAMYFCARSENYYSSPGYFAYWGQGTLVTVSSASTKGPEVQLVESGGGLVKPGGSLKLSCVASGFTFSTYAMSWVRQTPTKRLEWVATISRGGVSTYYPDTVKGRFTISRDNAKNTLYLQMSSLRSEDTAMYYCARPPTIVTTWFAYWGQGTLVTVSS
light: NTVMTQSPTSMFISVGDRVTMNCKASQNVGSDVDWYQQKTGQSPKLLISGTSNRYTGVPDRFTGSGSGTDFTLTISNMQAEDLAVYYCLQYNYNPTFGAGTKLELKRTVAAPSVFIFPPDVVMTQTPLSLPVSLGDQASISCRSSQSLVHSNGNTYLHWYLQKPGQSPKLLIYKVSNRFSGVPDRFSGSGSGTDFTLKISRVEAEDLGAYFCSQSTHVPYTFGGPTRLEIKR
B2: DVD3754: DVD-Ig: VD1 DNA(PA4), SL linker, VD2 mIgM (B7.6); heavy SEQ ID NO 54, light 55 (antibody)
heavy: EVQLVESGGGLVKPGGSLKLSCVASGFTFSTYAMSWVRQTPTKRLEWVATISRGGVSTYYPDTVKGRFTISRDNAKNTLYLQMSSLRSEDTAMYYCARPPTIVTTWFAYWGQGTLVTVSSASTKGPQVQLKESGPGLVKPSLTLSLTCTVSGFSLNGYGVIWVRQPPGKGLEWMGVIWGNGNTNYNSTLKSRLSISRDTSKSQVFLKMNNLQTEDTAMYFCARSENYYSSPGYFAYWGQGTLVTVSS
light: DVVMTQTPLSLPVSLGDQASISCRSSQSLVHSNGNTYLHWYLQKPGQSPKLLIYKVSNRFSGVPDRFSGSGSGTDFTLKISRVEAEDLGAYFCSQSTHVPYTFGGPTRLEIKRTVAAPSVFIFPPNTVMTQSPTSMFISVGDRVTMNCKASQNVGSDVDWYQQKTGQSPKLLISGTSNRYTGVPDRFTGSGSGTDFTLTISNMQAEDLAVYYCLQYNYNPTFGAGTKLELKR

What was measured:
AM14 WT B cells = assay: [3H]thymidine incorporation, BCR/TLR9 stimulation of AM14 WT B cells; type: cell-based, mouse; parameters: key to 3H incorporation AM14 WT, relative result: (X)-(XXX) indicates relative results; (XX): (X)-(XXX) indicates relative results; (X)-(XXX) indicates relative results; level of 3H incorporation / 3H incorporation AM14 WT: dose or concentration left out as unconfirmed; conditions: for 3H incorporation AM14 WT: 24 hours, then 6 hours pulse
Text: The AM14 B cell receptor (BCR) transgenic mouse has been described previously (Sweet et al. (2010) Autoimmun 43(8): 607-18). Briefly, AM14 is a BCR comprising the AM14 heavy chain and the Vk8 light chain that recognizes murine IgG2a (mIgG2a) of the “a” allotype. Between 95-98% of B cells in a mouse positive for the AM14 heavy chain and Vk8 light chain express the AM14 BCR. To generate AM14 B cells that are deficient in TLR9, TLR7 or FcγRIIB, the AM14 and Vk8 genes were bred to the appropriate knock out mice.
Primary murine B cells were purified by positive selection using BD Imag™ CD45R/B220 magnetic particles (BD Biosciences, San Jose, Calif.). Briefly, B cells were cultured in RPMI containing, pencillin-streptomycin, β-mercaptoethanol, and 5% heat-inactivated fetal calf serum (FCS) in 96 well flat bottom plates at a density of 4×10^5 cells/well. For stimulation through the BCR and TLR9, B cells were treated with a titration of 0.3 μg/ml-0.03 μg/ml of PA4 or 5 μg/ml to 0.15 μg/ml of a DVD-Ig protein (DVD3751, DVD3752, DVD3754, DVD3755, DVD3759 and DVD3760), unless otherwise noted. Cells were also treated with 1 μg/ml 1826, an experimental ligand for TLR9, as a control. After 24 hours, the cells were pulsed for 6 hours with [3H]thymidine (Perkin Elmer, Waltham Mass.). Incorporation of [3H]thymidine was quantified via a liquid scintillation beta counter (Trilux 1450 MicroBeta, PerkinElmer) according to standard methods.
DVD-Ig proteins DVD3751-DVD3760 were characterized by ^3H incorporation at […] according to the method of Example 2.6.

DNA = assay: Antinuclear antibody (ANA) test; type: binding; parameters: key to ANA score, relative result: (X)-(XXX) indicates relative results; (XX): (X)-(XXX) indicates relative results; (X)-(XXX) indicates relative results; conditions: for ANA score / ANA score, relative result: ANA staining at 10 μg/ml
Procedure: The cloned BWR4 and PA4 antibodies as well as the DVD-Ig proteins were tested for ANA reactivity using the ANA test kit. Briefly, the DVD-Ig proteins and antibodies were diluted to […] in blocking buffer (1% BSA in PBS). The DVD-Ig proteins and antibodies were added to separate wells of an ANA slide at 50 μl/well and incubated in a moist chamber for 2 hours at room temperature (RT). The wells were then washed 3× with PBS. To detect bound antibodies, Alexa Fluor 488 conjugated goat α-human IgG (α-hIgG) was then added at a dilution of 1:1,000 and the slide incubated in a moist chamber for 1 hour. Unbound detecting antibody was removed by immersing the slide in a jar containing PBS and incubating for 10 minutes at RT with gentle rocking. The prior step was repeated 2× and 10 μl of Prolong® Gold Antifade was added to each well and a 24 mm×60 mm #1 cover glass seated on top. The covered slide was incubated overnight at RT and then sealed by applying clear nail polish to the edges. Binding of the DVD-Ig proteins and antibodies to the slides was assessed by fluorescence microscopy.
DVD-Ig proteins DVD3751-DVD3760 were characterized by antinuclear antibody (ANA) staining at 10 μg/ml according to the method of Example 2.4.
ANA: HEp-2 human tissue culture substrate slides were incubated with 5 μg/ml of the anti-DNA-IgG2a or the DVD-Ig™ binding protein for 2 hours at RT. The slides were washed and bound antibodies were detected with Alexa-488 goat anti-human antibody or DyLight 488 goat anti-mouse antibody.

[1] = tested on: Dnase2−/− Ifnar1−/− Unc93b1−/− TKO B cells; assay: 3H-thymidine incorporation of B220-purified B cells, TKO; type: cell-based, mouse; conditions: 24 hours, FIG. 10C
Text: Mice: RF and Tlr-9^−/− mice have been described previously (Uccellini et al. (2008) J. Immunol. 181:5875-5884), The DNase II-deficient mice on a C57BL/6 background were kindly provided by Dr. S, Nagata and obtained from the RIKEN Institute. […] and Unc93B1-deficient mice were obtained from Jackson Lab. DnaseII^−/− Ifnar1^−/− (Het), DnaseII^−/− Ifnar1−/− (DKO), and DnaseII^−/− Unc93b1^−/− (TKO), were bred at UMMS. All mice were maintained at the Department of Animal Medicine of the University of Massachusetts Medical School in accordance with the regulations of the American Association for the Accreditation of Laboratory Animal Care.
Proliferation of B220+ B cells: B cells were purified by magnetic bead separation using CD45R/B220-conjugated magnetic particles (BD Biosciences, San Jose, Calif., USA) and stimulated as described previously (Nundel et al. (2013) J. Leukoc. Biol. 94:865-875) with 15 μg/ml goat anti-mouse IgM F(ab′)2 (Jackson ImmunoResearch), ODN1826 (CpG; Idera Pharmaceuticals), anti-DNA-mAb (Leadbetter et al. (2002) Nature 416:603-607), or DVD-Ig proteins (1 μg/ml). B cell proliferation was assessed by ^3H-thymidine (Amersham Biosciences, Piscataway, N.J., USA) incorporation at 24 hours post-stimulation. For long-term proliferation assays, B220-purified B cells were labeled with a final concentration of 2.5 μM CFSE (Life Technologies) in PBS for 2 minutes. […]

Molecule | 3H incorporation AM14 WT, relative result (AM14 WT B cells) | 3H incorporation AM14 WT (AM14 WT B cells) | ANA score (DNA) | ANA score, relative result (DNA) | level of 3H incorporation (AM14 WT B cells; among DVD3751-DVD3760) | level of ANA staining (DNA; 10 μg/ml, among DVD3751-DVD3760) | ANA, immunofluorescent HEp-2 staining (DNA; Example 6, 5 μg/ml, FIG. 8C) | response of TKO B cells [1]
B1 | (XX) | (18554) | 3.5 | (XX) |  |  |  | 
B2 | (XXX) | (35214) | 4.5 | (XXX) | highest level of ^3H incorporation | highest level of staining | high ANA score | failed to respond
